The target in the series is SSX2 (rSSX2) (UniProt Q16385 1-188). The experiment in a line: MST; Hill coefficient 3.0; 50 nM DNA; EMSA: 20 mM Tris-HCl pH 7.4, 50 mM NaCl, 1 mM DTT (complexes stable at 75 mM, dissolved at 250 mM NaCl; fragment used not stated); MST: 20 mM Tris-HCl pH 7.4, NaCl printed as 50 nM (probably 50 mM), 0.05% NP40, ambient temperature, 2 h. To be noted: protein: recombinant.

Drawing on article PMC4191419, “SSX2 is a novel DNA-binding protein that antagonizes polycomb group body formation and gene repression”, this text covers Kd for one molecule.

Sequence of SSX2 (rSSX2) (Q16385 whole entry, the tested form may be a part): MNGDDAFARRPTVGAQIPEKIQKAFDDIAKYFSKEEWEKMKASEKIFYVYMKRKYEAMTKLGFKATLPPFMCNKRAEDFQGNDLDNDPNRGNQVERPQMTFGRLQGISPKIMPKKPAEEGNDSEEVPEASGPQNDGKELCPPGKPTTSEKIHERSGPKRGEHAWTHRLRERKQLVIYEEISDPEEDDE

B1: Cy5 random 30-nt dsDNA (dsDNA)
DNA 1: CGTCTATACTTTCACAATGTTGACCTGCAC
DNA 2: GTGCAGGTCAACATTGTGAAAGTATAGACG
Turning to B1, the Kd came to 1800 ± 200 nM.
